Results from US12383631 (BRIGHT PEAK THERAPEUTICS, dated 2025).
Numbering of substitutions follows the chain as printed. Numbers in names are those of the source.

T1: human IL-18BP-His (human, UniProt O95998 31-194, limits assumed)
T1 construct: also called His-tagged human IL-18BP; not shown: His tag
T1 sequence (looked up): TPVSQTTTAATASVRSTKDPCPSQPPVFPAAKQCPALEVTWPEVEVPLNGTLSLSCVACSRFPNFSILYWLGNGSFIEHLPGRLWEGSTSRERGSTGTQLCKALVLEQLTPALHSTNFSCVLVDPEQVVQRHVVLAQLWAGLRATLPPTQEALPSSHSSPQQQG

T2: IL-18 receptor (IL-18Rα/IL-18Rβ) on cells (HEK-Blue IL18R reporter cells, NK-92, KG-1) (human, UniProt Q13478 19-541; O95256 20-599)
T2 sequence (looked up) 1: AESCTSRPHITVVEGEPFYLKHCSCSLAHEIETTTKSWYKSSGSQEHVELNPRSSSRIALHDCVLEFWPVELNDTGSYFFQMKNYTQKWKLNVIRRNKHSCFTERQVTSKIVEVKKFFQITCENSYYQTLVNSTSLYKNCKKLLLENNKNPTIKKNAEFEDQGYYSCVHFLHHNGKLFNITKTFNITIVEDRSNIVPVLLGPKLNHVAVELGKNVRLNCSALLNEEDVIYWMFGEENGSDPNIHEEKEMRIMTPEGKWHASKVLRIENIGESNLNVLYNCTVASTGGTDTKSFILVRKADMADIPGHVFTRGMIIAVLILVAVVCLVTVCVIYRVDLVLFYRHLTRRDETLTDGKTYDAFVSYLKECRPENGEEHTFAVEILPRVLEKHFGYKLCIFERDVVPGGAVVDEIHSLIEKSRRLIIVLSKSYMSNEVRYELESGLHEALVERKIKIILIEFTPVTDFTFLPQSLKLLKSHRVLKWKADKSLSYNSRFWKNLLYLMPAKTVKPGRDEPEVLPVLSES
T2 sequence (looked up) 2: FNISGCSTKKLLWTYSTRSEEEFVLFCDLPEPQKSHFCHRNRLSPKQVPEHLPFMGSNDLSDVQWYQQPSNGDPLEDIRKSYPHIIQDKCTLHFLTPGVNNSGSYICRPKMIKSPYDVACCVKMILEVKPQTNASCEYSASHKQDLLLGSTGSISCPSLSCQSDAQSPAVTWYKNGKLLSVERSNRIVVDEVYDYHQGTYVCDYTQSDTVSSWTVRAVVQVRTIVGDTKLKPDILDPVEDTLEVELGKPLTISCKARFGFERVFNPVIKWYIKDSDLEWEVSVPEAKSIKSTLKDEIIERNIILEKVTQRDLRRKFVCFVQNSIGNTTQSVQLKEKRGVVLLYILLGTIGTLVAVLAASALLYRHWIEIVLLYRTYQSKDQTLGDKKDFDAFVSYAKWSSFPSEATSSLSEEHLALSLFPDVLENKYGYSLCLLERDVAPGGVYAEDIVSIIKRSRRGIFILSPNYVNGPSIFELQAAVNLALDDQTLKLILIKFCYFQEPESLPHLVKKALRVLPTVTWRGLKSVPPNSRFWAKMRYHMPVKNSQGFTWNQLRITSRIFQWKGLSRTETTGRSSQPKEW

B1: IL-18 polypeptide C142 (ligand)
chain: MFGKLKSKLSIIRNLNDQVLFIDQGNRPLFEDMTDSDARDNAPRTIFIISMYADSQPRGMAVAISVKCEKISTLSAENKIISFKEMNPPDNIKDTKSDIIFFQRSVPGHDNKMQFESSSYEGYFLAAEKERDLFKLILKKEDELGDRSIMFTVQNED
notes: also called Y1M, E6K, V11I, C38A, K53A, T63A, C76A, C127A
B2: IL-18 polypeptide of SEQ ID NO: 47 (C38S, C68S, C76S, C127S) (ligand)
chain: B1 chain with M1Y, K6E, I11V, A38S, A53K, A63T, C68S, A76S, A127S
B3: IL-18 polypeptide C145 (ligand)
chain: B1 chain with M1Y, K6E, S55A, A63T
notes: also called V11I, C38A, K53A, S55A, C76A, C127A
B4: IL-18 polypeptide C146 (SEQ ID NO: 68) (ligand)
chain: B1 chain with M1Y, K6E, M51G, A63T
notes: also called V11I, C38A, M51G, K53A, C76A, C127A
B5: IL-18 polypeptide C149 (ligand)
chain: B1 chain with M1Y, K6E, E31A, A63T
notes: also called V11I, E31A, C38A, K53A, C76A, C127A
B6: IL-18 polypeptide C147 (ligand)
chain: B1 chain with M1Y, K6E, D54A, A63T
notes: also called V11I, C38A, K53A, D54A, C76A, C127A
B7: IL-18 polypeptide C184 (ligand)
chain: B1 chain with M1Y, K6R
notes: also called E6R, V11I, C38A, K53A, T63A, C76A, C127A
B8: IL-18 polypeptide C176 (ligand)
chain: B1 chain with M1Y, I49M
notes: also called E6K, V11I, C38A, I49M, K53A, T63A, C76A, C127A
B9: IL-18 polypeptide of SEQ ID NO: 48 (C38S, C68S, C76S, C127S, K70C) (ligand)
chain: B1 chain with M1Y, K6E, I11V, A38S, A53K, A63T, C68S, K70C, A76S, A127S
B10: IL-18 polypeptide of SEQ ID NO: 56 (E6K, K53A, C38S, C76S, C127S) (ligand)
chain: B1 chain with M1Y, I11V, A38S, A63T, A76S, A127S
B11: IL-18 polypeptide C143 (ligand)
chain: B1 chain with M1Y, K6E, A63T
notes: also called V11I, C38A, K53A, C76A, C127A
B12: IL-18 polypeptide C148 (ligand)
chain: B1 chain with M1Y, F2A, K6E, A63T
notes: also called F2A, V11I, C38A, K53A, C76A, C127A
B13: IL-18 polypeptide C144 (ligand)
chain: B1 chain with M1Y, K6E
notes: also called V11I, C38A, K53A, T63A, C76A, C127A
B14: IL-18 polypeptide C174 (ligand)
chain: B1 chain with M1Y, K8L
notes: also called K8L, E6K, V11I, C38A, K53A, T63A, C76A, C127A
B15: IL-18 polypeptide of SEQ ID NO: 55 (K53A, T63A, C38S, C68S, C76S, C127S, K70C) (ligand)
chain: B1 chain with M1Y, K6E, I11V, A38S, C68S, K70C, A76S, A127S
B16: IL-18 polypeptide of SEQ ID NO: 4 (E6K, C38A, K53A, C68A, M86C) (ligand)
chain: B1 chain with M1Y, I11V, A63T, C68A, A76C, M86C, A127C
B17: IL-18 polypeptide of SEQ ID NO: 6 (E6K, V11I, C38A, K53A, T63A, C68A, C76A, D98C, C127A) (ligand)
chain: B1 chain with M1Y, C68A, D98C
B18: IL-18 polypeptide of SEQ ID NO: 5 (E6K, V11I, C38A, K53A, T63A, C68A, C76A, M86C, C127A) (ligand)
chain: B1 chain with M1Y, C68A, M86C
B19: IL-18 polypeptide of SEQ ID NO: 9 (E6K, C38A, K53A, C68A, D98C) (ligand)
chain: B1 chain with M1Y, I11V, A63T, C68A, A76C, D98C, A127C
B20: IL-18 polypeptide of SEQ ID NO: 43 (E06K, K53A, S55A, Y01G) (ligand)
chain: B1 chain with M1G, I11V, A38C, S55A, A63T, A76C, A127C
B21: IL-18 polypeptide of SEQ ID NO: 44 (E06K, K53A, S55A, F02A) (ligand)
chain: B1 chain with M1Y, F2A, I11V, A38C, S55A, A63T, A76C, A127C
B22: IL-18 polypeptide of SEQ ID NO: 35 (Y01G, F02A, E06K, M51G, K53A, D54A, S55A, T63A) (ligand)
chain: B1 chain with M1G, F2A, I11V, A38C, M51G, D54A, S55A, A76C, A127C
B23: IL-18 polypeptide of SEQ ID NO: 46 (E06K, K53A, S55A, M51G) (ligand)
chain: B1 chain with M1Y, I11V, A38C, M51G, S55A, A63T, A76C, A127C
B24: IL-18 polypeptide of SEQ ID NO: 34 (E06K, K53A, S55A) (ligand)
chain: B1 chain with M1Y, I11V, A38C, S55A, A63T, A76C, A127C
B25: IL-18 polypeptide of SEQ ID NO: 49 (E06K, K53A, S55A, C38S, C68S, C76S, C127S, K70C) (ligand)
chain: B1 chain with M1Y, I11V, A38S, S55A, A63T, C68S, K70C, A76S, A127S
B26: IL-18 polypeptide of SEQ ID NO: 45 (E06K, K53A, S55A, D54A) (ligand)
chain: B1 chain with M1Y, I11V, A38C, D54A, S55A, A63T, A76C, A127C
B27: IL-18 polypeptide C141 (SEQ ID NO: 71) (ligand)
chain: GYFGKLKSKLSIIRNLNDQVLFIDQGNRPLFEDMTDSDARDNAPRTIFIISMYADSQPRGMAVAISVKCEKISTLSAENKIISFKEMNPPDNIKDTKSDIIFFQRSVPGHDNKMQFESSSYEGYFLAAEKERDLFKLILKKEDELGDRSIMFTVQNED
B28: IL-18 polypeptide C192 (SEQ ID NO: 70) (ligand)
chain: B27 chain with M52G
B29: IL-18 polypeptide C183 (SEQ ID NO: 69) (ligand)
chain: B1 chain with M1Y, M51G
B30: IL-18 polypeptide C181 (ligand)
chain: B1 chain with M1Y, V153E
B31: IL-18 polypeptide C177 (ligand)
chain: B1 chain with M1Y, I49R
B32: IL-18 polypeptide C182 (ligand)
chain: B1 chain with M1Y, V153Y
B33: IL-18 polypeptide C179 (ligand)
chain: B1 chain with M1Y, K8E, Q103R
B34: IL-18 polypeptide C178 (ligand)
chain: B1 chain with M1Y, Q103R
B35: IL-18 polypeptide C140 (SEQ ID NO: 72) (ligand)
chain: GGGGYFGKLKSKLSIIRNLNDQVLFIDQGNRPLFEDMTDSDARDNAPRTIFIISMYADSQPRGMAVAISVKCEKISTLSAENKIISFKEMNPPDNIKDTKSDIIFFQRSVPGHDNKMQFESSSYEGYFLAAEKERDLFKLILKKEDELGDRSIMFTVQNED

target: T1, human IL-18BP-His; assay: AlphaLISA of free IL-18BP
Experimental: The plate is incubated further for 1 hr at room temperature. Under subdued light, 12.5 µL of 2× streptavidin (SA) donor beads are pipetted into each well, and the wells are incubated with shaking for an additional 30 min at room temperature. The AlphaLisa signal is then measured on an Enspire plate reader with 680 and 615 nm as excitation and emission wavelengths, respectively. The dissociation constant (K_D) is calculated based on a variable slope, four parameter analysis using GraphPad PRISM software.

Kd [nM] | Binder
2.25 | B1
0.03 | B2
9.74 | B3
373 | B4
0.64 | B5
25.8 | B6
5.46 | B7
25.8 | B8
0.21 | B9
436 | B10
8.86 | B11
57.2 | B12
0.66 | B13
0.14 | B14
913 | B15

target: T2, IL-18 receptor (IL-18Rα/IL-18Rβ) on …; assay: cell-based or functional assay

EC50, IFNγ stimulation, NK92 cells [nM] | Binder
0.022 | B16
1.37 | B17
0.075 | B18
0.069 | B19
6.12 | B20
> 1000 | B21
0.115 | B2
0.087 | B3
0.037 | B4
0.187 | B5
0.079 | B6
> 55 | B22
0.488 | B9
7.4 | B23
0.138 | B11
0.256 | B12
0.012 | B13
0.824 | B24
58.5 | B25
17.2 | B15
30 | B26

target: T2, IL-18 receptor (IL-18Rα/IL-18Rβ) on …; assay: cell-based or functional assay; remark: another data set of the same source

EC50, HEK-Blue IL18R reporter cells [pM] | Binder
1.68 | B27
14 | B28
0.02 | B1
0.1 | B29
3.63 | B3
0.8 | B4
6.6 | B5
0.1 | B30
1 | B6
0.04 | B7
0.04 | B31
0.07 | B8
0.08 | B32
3.73 | B10
0.98 | B11
7.28 | B12
0.4 | B33
0.17 | B13
0.26 | B34
0.29 | B14
272 | B24
2.5 | B35
